Residue numbers refer to the chain shown, from its start. Blank lines part the entries; values can stand above or below the molecule they belong to.
Legend:
[1] = target: Human GLP-2R WT (1–553) (human) (UniProt O95838)
[2] = target: GLP-2R R242(ECL1)E (human) (UniProt O95838)
[3] = target: T1, GLP-2R R242(ECL1)A (human) (UniProt O95838)
T1 sequence: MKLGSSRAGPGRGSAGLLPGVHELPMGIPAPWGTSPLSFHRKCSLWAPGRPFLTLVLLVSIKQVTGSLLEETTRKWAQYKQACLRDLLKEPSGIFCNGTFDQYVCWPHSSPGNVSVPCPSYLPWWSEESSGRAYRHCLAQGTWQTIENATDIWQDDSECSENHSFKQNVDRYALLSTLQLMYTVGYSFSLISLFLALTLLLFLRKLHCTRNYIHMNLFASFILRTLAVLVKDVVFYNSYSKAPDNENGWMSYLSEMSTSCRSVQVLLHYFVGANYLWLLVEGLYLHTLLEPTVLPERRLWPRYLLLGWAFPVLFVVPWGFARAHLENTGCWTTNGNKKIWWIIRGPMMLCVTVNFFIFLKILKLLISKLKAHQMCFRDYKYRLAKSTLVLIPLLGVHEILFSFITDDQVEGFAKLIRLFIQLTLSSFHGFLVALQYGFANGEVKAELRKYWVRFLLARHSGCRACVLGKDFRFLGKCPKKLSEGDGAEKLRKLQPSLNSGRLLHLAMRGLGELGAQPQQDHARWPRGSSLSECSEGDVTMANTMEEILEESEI

[4] = target: T2, GLP-2R Y252(ECL1)A (human) (UniProt O95838)
T2 sequence: T1 sequence with A242R, Y252A

[5] = target: GLP-2R W249^ECL1A (human) (UniProt O95838)
[6] = target: GLP-2R (1-553) (WT) (human) (UniProt O95838)
[7] = target: GLP-2R R242(ECL1)E (human) (UniProt O95838); remark: listed apart in the source
[8] = target: T1, GLP-2R R242(ECL1)A (human); remark: listed apart in the source
[9] = target: T2, GLP-2R Y252(ECL1)A (human); remark: listed apart in the source
[10] = target: GLP-2R W249^ECL1A (human) (UniProt O95838); remark: listed apart in the source
[11] = target: GLP-2R (1-553) (WT) (human) (UniProt O95838); remark: listed apart in the source
GLP-2R Y252^ECL1A = target: T3, GLP-2R Y252^ECL1A (Homo sapiens, UniProt O95838, Y252A); test: cAMP accumulation, Y252^ECL1A; type: cell-based; parameters: WT (1–553); expressed in transfected cells; HEK 293T (cAMP)
T3 sequence (O95838 1-553 Y252A): T1 sequence with A242R, Y252A
Procedure: (§1) They were seeded onto 6-well cell culture plates and transiently transfected with different GLP-2R constructs using Lipofectamine 2000 transfection reagent (Invitrogen, Carlsbad, CA, USA). After 24 h, the transfected cells were seeded onto 384-well microtiter plates (3000 cells per well) in HBSS supplemented with 5 mM HEPES, 0.1% (w/v) bovine serum albumin (BSA) and 0.5 mM 3-isobutyl-1- methylxanthine, and stimulated with increasing concentrations of GLP-2 for 30 min at RT. Eu and Ulight were diluted by cAMP detection buffer and added to the plates separately to terminate the reaction. Plates were incubated at RT for 60 min before measuring the fluorescence intensity at 620 nm and […] by an EnVision multilabel plate reader (PerkinElmer, Boston, USA).

GLP-2R W249^ECL1A = target: T4, GLP-2R W249^ECL1A (Homo sapiens, UniProt O95838, W249A); test: cAMP accumulation, W249^ECL1A; type: cell-based; parameters: WT (1–553); expressed in transfected cells; HEK 293T (cAMP)
T4 sequence (O95838 1-553 W249A): T1 sequence with A242R, W249A
Procedure: as §1

GLP-2R R242^ECL1E = target: T5, GLP-2R R242^ECL1E (Homo sapiens, UniProt O95838, R242E); test: cAMP accumulation, R242^ECL1E; type: cell-based; parameters: WT (1–553); expressed in transfected cells; HEK 293T (cAMP)
T5 sequence (O95838 1-553 R242E): T1 sequence with A242E
Procedure: as §1

GLP-2R = details: cited from earlier work
Text: Consistently, the truncated metabolite GLP-2(3–33) acts as a part ...

GLP-1R (WT) = GLP-1R (WT) (Homo sapiens, UniProt P43220)
Chain of GLP-1R (WT) (P43220 24-463): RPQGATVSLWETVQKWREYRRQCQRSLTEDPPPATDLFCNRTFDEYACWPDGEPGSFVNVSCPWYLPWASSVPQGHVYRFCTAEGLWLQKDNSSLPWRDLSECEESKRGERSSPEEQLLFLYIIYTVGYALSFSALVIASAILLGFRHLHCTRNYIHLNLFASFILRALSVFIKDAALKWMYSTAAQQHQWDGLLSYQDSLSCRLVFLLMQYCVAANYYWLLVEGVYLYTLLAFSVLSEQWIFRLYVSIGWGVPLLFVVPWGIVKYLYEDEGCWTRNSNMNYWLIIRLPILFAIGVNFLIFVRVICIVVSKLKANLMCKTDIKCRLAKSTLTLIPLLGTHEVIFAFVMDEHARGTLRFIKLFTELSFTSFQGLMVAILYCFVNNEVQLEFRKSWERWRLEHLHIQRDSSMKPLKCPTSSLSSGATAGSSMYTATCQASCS

Molecule: chimeric GLP-2/GLP-1(20–33) (peptide)
- peptide-induced cAMP accumulation for GLP-2R: fold reduction of potency [1]: 17 fold

Molecule: GLP-2(3–33): truncated metabolite of GLP-2, partial agonist (DGSFSDEMNTILDNLAARDFINWLIQTKITD; Glucagon-like peptide 2; UniProt P01275 148-178, looked up, fragment)
- type of agonism (in words) (GLP-2R; GLP-2R): partial agonist
- reduction in binding affinity (in words) (GLP-2R; vs GLP-2): great reduction in binding affinity
- reduction in potency (in words) (GLP-2R; vs GLP-2): great reduction in binding affinity and potency

B1: chimeric GLP-2/GLP-1(7-19) (peptide)
peptide: HADGSFTSDVSSYLEGQAARDFINWLIQTKITD
- Table S5: pEC50 of cAMP accumulation induced by the chimeric peptide (7-19), cells transfected with GLP-1R (WT) (GLP-1R (WT)): 10.9 -log M
- Table S5: pEC50 of cAMP accumulation induced by the chimeric peptide (7-19), cells transfected with GLP-2R (WT) [11]: 8.5 -log M

Other lines, results leading:

- peptide-induced cAMP accumulation for GLP-2R: fold decrease against native GLP-2 [1]: 12 fold
Molecule: chimeric GLP-2/GLP-1(1–6) (peptide)

- Table S3: pEC50 of GLP-2-induced cAMP accumulation, HEK 293T cells transfected with the receptor mutant [2]: 9.1 -log M
- Table S3: pEC50 of GLP-2-induced cAMP accumulation, HEK 293T cells transfected with the receptor mutant [3]: 9.8 -log M
- Table S3: pEC50 of GLP-2-induced cAMP accumulation, HEK 293T cells transfected with the receptor mutant [4]: 9.8 -log M
- Table S3: pEC50 of GLP-2-induced cAMP accumulation, HEK 293T cells transfected with the receptor mutant [5]: 7.2 -log M
- Table S3: pEC50 of GLP-2-induced cAMP accumulation, HEK 293T cells transfected with the receptor (wild-type reference of the table) [6]: 10.4 -log M
- Table S5: pEC50 of GLP-2(1-33)-induced cAMP accumulation, cells transfected with the receptor mutant [7]: 9.6 -log M
- Table S5: pEC50 of GLP-2(1-33)-induced cAMP accumulation, cells transfected with the receptor mutant [8]: 9.9 -log M
- Table S5: pEC50 of GLP-2(1-33)-induced cAMP accumulation, cells transfected with the receptor mutant [9]: 10.1 -log M
- Table S5: pEC50 of GLP-2(1-33)-induced cAMP accumulation, cells transfected with the receptor mutant [10]: 7.4 -log M
- Table S5: pEC50 of GLP-2(1-33)-induced cAMP accumulation, cells transfected with the receptor (wild-type reference of the table) [11]: 10.8 -log M
Molecule: Human GLP-2(1-33) (peptide)

- EC50 (GLP-2R Y252^ECL1A): 0.631 nM
- Emax (GLP-2R Y252^ECL1A; HEK-293T, Table S5, Y252A, HEK 293T, 30 min, RT, mean ± SEM, n ≥ 3 in duplicate, read-out: cAMP Emax (% WT)): -0.7 ± 1.1%
- EC50 (GLP-2R W249^ECL1A): 2.51 nM
- Emax (GLP-2R W249^ECL1A; HEK-293T, Table S5, W249A, HEK 293T, 30 min, RT, mean ± SEM, n ≥ 3 in duplicate, read-out: cAMP Emax (% WT)): -2.4 ± 0.7%
- EC50 (GLP-2R R242^ECL1E): 2.51 nM
- Emax (GLP-2R R242^ECL1E; HEK-293T, Table S5, R242E, HEK 293T, 30 min, RT, mean ± SEM, n ≥ 3 in duplicate, read-out: cAMP Emax (% WT)): -2.2 ± 0.9%
Molecule: CC[C@H](C)[C@H](NC(=O)[C@H](Cc1ccccc1)NC(=O)[C@H](CCC(=O)O)NC(=O)[C@H](CCCCN)NC(=O)[C@H](C)NC(=O)[C@H](C)NC(=O)[C@H](CCC(N)=O)NC(=O)CNC(=O)[C@H](CCC(=O)O)NC(=O)[C@H](CC(C)C)NC(=O)[C@H](Cc1ccc(O)cc1)NC(=O)[C@H](CO)NC(=O)[C@H](CO)NC(=O)[C@@H](NC(=O)[C@H](CC(=O)O)NC(=O)[C@H](CO)NC(=O)[C@@H](NC(=O)[C@H](Cc1ccccc1)NC(=O)[C@@H](NC(=O)CNC(=O)[C@H](CCC(=O)O)NC(=O)[C@H](C)NC(=O)[C@@H](N)Cc1c[nH]cn1)[C@@H](C)O)[C@@H](C)O)C(C)C)C(=O)N[C@@H](C)C(=O)N[C@@H](Cc1c[nH]c2ccccc12)C(=O)N[C@@H](CC(C)C)C(=O)N[C@H](C(=O)N[C@@H](CCCCN)C(=O)NCC(=O)N[C@@H](CCCNC(=N)N)C(=O)NCC(=O)O)C(C)C [GLP-1(1-31)]

Reference: paper PMC7785020, “A unique hormonal recognition feature of the human glucagon-like peptide-2 receptor” (Cell Research, 2020)
